Results: the supplement of paper PMC9112550, “Optimization of the antimicrobial peptide Bac7 by deep mutational scanning” (BMC Biology, 2022)

Tested on: Escherichia coli TOP10
Test: shrunken log2 fold change of peptide-encoding DNA abundance (4.5 h post-induction vs induction); higher = less antimicrobial activity (less host growth inhibition)
Conditions: time post-induction: 4.5 h; library: site-saturation at positions 5, 18, 19, 20
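Further: peptides expressed intracellularly from a pBAD plasmid library in pooled LB shake-flask culture, induced with 0.3% L-arabinose, DNA abundance read by NGS, three biological replicates, DESeq2 with apeglm shrinkage.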

| Sequence | shrunken log2 fold change |
| --- | --- |
| RRIRQRPPRLPRPRPRPQWPPRP | 0.239 |
| RRIRKRPPRLPRPRPRPAFEPRP | 0.158 |
| RRIRMRPPRLPRPRPRPSHKPRP | -0.183 |
| RRIRWRPPRLPRPRPRPWTPPRP | 0.0119 |
| RRIRTRPPRLPRPRPRPLPRPRP | 0.484 |
| RRIRRRPPRLPRPRPRPVCFPRP | 0.383 |
| RRIRLRPPRLPRPRPRPCEKPRP | -0.00674 |
| RRIRPRPPRLPRPRPRPIMGPRP | -0.233 |
| RRIRERPPRLPRPRPRPKHYPRP | -0.373 |
| RRIRGRPPRLPRPRPRPTSGPRP | 0.917 |
| RRIRRRPPRLPRPRPRPPYWPRP | 0.625 |
| RRIRLRPPRLPRPRPRPPLNPRP | 0.0486 |
| RRIRKRPPRLPRPRPRPTQMPRP | 0.8 |
| RRIRARPPRLPRPRPRPGHHPRP | 0.127 |
| RRIRNRPPRLPRPRPRPKACPRP | -0.00921 |
| RRIRERPPRLPRPRPRPAKHPRP | -0.107 |
| RRIRGRPPRLPRPRPRPLWYPRP | 0.298 |
| RRIRHRPPRLPRPRPRPIIMPRP | -0.029 |
| RRIRSRPPRLPRPRPRPYFRPRP | -0.853 |
| RRIRARPPRLPRPRPRPGKPPRP | 0.154 |
| RRIRVRPPRLPRPRPRPVRKPRP | 0.274 |
| RRIRRRPPRLPRPRPRPFHYPRP | -0.259 |
| RRIRHRPPRLPRPRPRPLGHPRP | -0.499 |
| RRIRCRPPRLPRPRPRPMEHPRP | -0.0605 |
| RRIRLRPPRLPRPRPRPSQGPRP | 0.535 |

| Sequence | shrunken log2 fold change |
| --- | --- |
| RRIRQRPPRLPRPRPRPYKSPRP | -0.248 |
| RRIRWRPPRLPRPRPRPWYPPRP | 0.0299 |
| RRIRDRPPRLPRPRPRPDIHPRP | -0.0156 |
| RRIRERPPRLPRPRPRPRWDPRP | 0.143 |
| RRIRERPPRLPRPRPRPGTRPRP | -0.0692 |
| RRIRIRPPRLPRPRPRPNQSPRP | -0.812 |
| RRIRPRPPRLPRPRPRPCQAPRP | 0.00851 |
| RRIRFRPPRLPRPRPRPWLQPRP | -0.163 |
| RRIRHRPPRLPRPRPRPFPWPRP | -0.0989 |
| RRIRQRPPRLPRPRPRPGYEPRP | 0.00854 |
| RRIRNRPPRLPRPRPRPILLPRP | -0.103 |
| RRIRKRPPRLPRPRPRPTCWPRP | 0.499 |
| RRIRSRPPRLPRPRPRPDRCPRP | -0.115 |
| RRIRDRPPRLPRPRPRPPEFPRP | -0.0567 |
| RRIRKRPPRLPRPRPRPYAYPRP | -0.12 |
| RRIRSRPPRLPRPRPRPWHMPRP | 0.17 |
| RRIRYRPPRLPRPRPRPIDTPRP | -0.0431 |
| RRIRNRPPRLPRPRPRPTWDPRP | -0.0897 |
| RRIRERPPRLPRPRPRPHYMPRP | -0.0919 |
| RRIRTRPPRLPRPRPRPSDAPRP | -0.174 |
| RRIRTRPPRLPRPRPRPVCTPRP | 0.162 |
| RRIRKRPPRLPRPRPRPAQLPRP | 0.0282 |
| RRIRRRPPRLPRPRPRPSCYPRP | -0.0677 |
| RRIRTRPPRLPRPRPRPELQPRP | -0.0178 |
| RRIRMRPPRLPRPRPRPQMEPRP | 0.0809 |

| Sequence | shrunken log2 fold change |
| --- | --- |
| RRIRRRPPRLPRPRPRPRHTPRP | 0.268 |
| RRIRFRPPRLPRPRPRPCDAPRP | -0.312 |
| RRIRERPPRLPRPRPRPQVQPRP | 0.029 |
| RRIRVRPPRLPRPRPRPMDNPRP | 0.0397 |
| RRIRKRPPRLPRPRPRPHRWPRP | 0.00588 |
| RRIRGRPPRLPRPRPRPCPYPRP | 0.0633 |
| RRIRRRPPRLPRPRPRPEFRPRP | 0.179 |
| RRIRIRPPRLPRPRPRPMGVPRP | -0.0148 |
| RRIRARPPRLPRPRPRPLMIPRP | -0.138 |
| RRIRERPPRLPRPRPRPWIGPRP | 0.155 |
| RRIRKRPPRLPRPRPRPQSRPRP | 0.0866 |
| RRIRPRPPRLPRPRPRPKWNPRP | -0.0477 |
| RRIRMRPPRLPRPRPRPFFVPRP | -0.0457 |
| RRIRWRPPRLPRPRPRPPDVPRP | 0.235 |
| RRIRLRPPRLPRPRPRPTMYPRP | 0.163 |
| RRIRGRPPRLPRPRPRPVKQPRP | 0.216 |
| RRIRQRPPRLPRPRPRPRLLPRP | 0.0504 |
| RRIRGRPPRLPRPRPRPVGYPRP | 0.295 |
| RRIRGRPPRLPRPRPRPFCGPRP | 0.224 |
| RRIRERPPRLPRPRPRPNMEPRP | -0.384 |
| RRIRPRPPRLPRPRPRPSRGPRP | 0.839 |
| RRIRYRPPRLPRPRPRPHWTPRP | -0.0421 |
| RRIRARPPRLPRPRPRPSPFPRP | 0.0195 |
| RRIRERPPRLPRPRPRPKYRPRP | -0.00726 |
| RRIRERPPRLPRPRPRPHLCPRP | -0.101 |

| Sequence | shrunken log2 fold change |
| --- | --- |
| RRIRHRPPRLPRPRPRPEFMPRP | 0.0682 |
| RRIRDRPPRLPRPRPRPHSQPRP | -0.0254 |
| RRIRPRPPRLPRPRPRPRHQPRP | 0.31 |
| RRIRHRPPRLPRPRPRPDHKPRP | -0.274 |
| RRIRVRPPRLPRPRPRPIMGPRP | 0.0179 |
| RRIRIRPPRLPRPRPRPHFDPRP | -0.149 |
| RRIRNRPPRLPRPRPRPLHWPRP | -0.273 |
| RRIRGRPPRLPRPRPRPQPTPRP | 1.02 |
| RRIRSRPPRLPRPRPRPIPMPRP | -0.0186 |
| RRIRRRPPRLPRPRPRPECEPRP | 0.323 |
| RRIRIRPPRLPRPRPRPPFIPRP | -0.755 |
| RRIRHRPPRLPRPRPRPEASPRP | 0.0128 |
| RRIRRRPPRLPRPRPRPPKTPRP | 0.108 |
| RRIRLRPPRLPRPRPRPFQKPRP | 0.382 |
| RRIRIRPPRLPRPRPRPECHPRP | 0.0255 |
| RRIRYRPPRLPRPRPRPGDQPRP | 0.0121 |
| RRIRTRPPRLPRPRPRPTDMPRP | -0.0264 |
| RRIRSRPPRLPRPRPRPMTNPRP | -0.309 |
| RRIRCRPPRLPRPRPRPPITPRP | -0.286 |
| RRIRMRPPRLPRPRPRPWFSPRP | -0.0415 |
| RRIRARPPRLPRPRPRPLSYPRP | -0.00336 |
| RRIRMRPPRLPRPRPRPKFWPRP | 1.87 |
| RRIRKRPPRLPRPRPRPQWFPRP | -0.185 |
| RRIRARPPRLPRPRPRPITLPRP | -0.13 |
| RRIRLRPPRLPRPRPRPVHTPRP | -0.0875 |

| Sequence | shrunken log2 fold change |
| --- | --- |
| RRIRSRPPRLPRPRPRPHYDPRP | -0.735 |
| RRIRKRPPRLPRPRPRPLPGPRP | 0.529 |
| RRIRARPPRLPRPRPRPMYTPRP | -0.0517 |
| RRIRRRPPRLPRPRPRPIVLPRP | -0.102 |
| RRIRTRPPRLPRPRPRPALHPRP | -0.19 |
| RRIRWRPPRLPRPRPRPRIDPRP | -0.0323 |
| RRIRYRPPRLPRPRPRPPQCPRP | -0.32 |
| RRIRGRPPRLPRPRPRPQMWPRP | 0.891 |
| RRIRIRPPRLPRPRPRPDMQPRP | -0.0983 |
| RRIRVRPPRLPRPRPRPYHNPRP | -0.946 |
| RRIRKRPPRLPRPRPRPKFWPRP | 0.798 |
| RRIRIRPPRLPRPRPRPPSRPRP | 0.231 |
| RRIRTRPPRLPRPRPRPLMSPRP | 0.0356 |
| RRIRVRPPRLPRPRPRPPQTPRP | 0.0537 |
| RRIRARPPRLPRPRPRPATVPRP | 0.214 |
| RRIRTRPPRLPRPRPRPGNKPRP | -0.0505 |
| RRIRQRPPRLPRPRPRPPHTPRP | 1.08 |
| RRIRKRPPRLPRPRPRPRHEPRP | -0.115 |
| RRIRCRPPRLPRPRPRPYPIPRP | -0.198 |
| RRIRTRPPRLPRPRPRPTCNPRP | -0.533 |
| RRIRDRPPRLPRPRPRPGTMPRP | -0.302 |
| RRIRRRPPRLPRPRPRPATLPRP | 0.332 |
| RRIRERPPRLPRPRPRPHVCPRP | -0.0153 |
| RRIRGRPPRLPRPRPRPMLCPRP | 0.558 |
| RRIRHRPPRLPRPRPRPFNAPRP | -0.495 |

| Sequence | shrunken log2 fold change |
| --- | --- |
| RRIRCRPPRLPRPRPRPDRVPRP | -0.112 |
| RRIRGRPPRLPRPRPRPPDGPRP | 1.99 |
| RRIRHRPPRLPRPRPRPVYFPRP | -0.508 |
| RRIRRRPPRLPRPRPRPCGYPRP | 0.0658 |
| RRIRIRPPRLPRPRPRPSPFPRP | -0.81 |
| RRIRSRPPRLPRPRPRPQNGPRP | -0.535 |
| RRIRTRPPRLPRPRPRPCMWPRP | 0.0746 |
| RRIRTRPPRLPRPRPRPTYLPRP | -0.827 |
| RRIRYRPPRLPRPRPRPYHNPRP | -0.525 |
| RRIRMRPPRLPRPRPRPISSPRP | -0.0416 |
| RRIRMRPPRLPRPRPRPPKWPRP | 0.315 |
| RRIRIRPPRLPRPRPRPVECPRP | 0.00902 |
| RRIRQRPPRLPRPRPRPWSPPRP | -0.106 |
| RRIRVRPPRLPRPRPRPQCGPRP | -0.0769 |
| RRIRYRPPRLPRPRPRPITAPRP | -0.00947 |
| RRIRRRPPRLPRPRPRPAHIPRP | 0.0825 |
| RRIRWRPPRLPRPRPRPPDLPRP | 0.888 |
| RRIRDRPPRLPRPRPRPGRQPRP | 0.0393 |
| RRIRHRPPRLPRPRPRPPPGPRP | 0.769 |
| RRIRDRPPRLPRPRPRPVFFPRP | 0.208 |
| RRIRQRPPRLPRPRPRPEGAPRP | 0.852 |
| RRIRCRPPRLPRPRPRPNLLPRP | -0.572 |
| RRIRSRPPRLPRPRPRPGFWPRP | 0.654 |
| RRIRMRPPRLPRPRPRPAPNPRP | 1.07 |
| RRIRARPPRLPRPRPRPVSEPRP | 0.338 |
